Starred links: 1 amine or outer side, 2 acyl side, 3 side chain; linkers in the order of their positions; H or OH if unused. Non-standard residues stand in square brackets, D forms with d. Groups on a side chain read outwards from the residue. No end group written: not given here. *: point of attachment. C20 diacid = O=C(O)CCCCCCCCCCCCCCCCCCC(=O)*; C18 diacid = O=C(O)CCCCCCCCCCCCCCCCC(=O)*; C16 diacid = O=C(O)CCCCCCCCCCCCCCC(=O)*; γGlu = O=C(O)[C@H](CCC(=O)[*:2])N[*:1]; Adipoyl = O=C(CCCCC(=O)[*:2])[*:1]; Palmitoyl = CCCCCCCCCCCCCCCC(=O)*; Suc = O=C(CCC(=O)[*:2])[*:1]; AEEA = NCCOCCOCC(=O)O; Aib = CC(C)(N)C(=O)O
T1: human GIP receptor (human, UniProt P48546 22-466)
T1 sequence (looked up): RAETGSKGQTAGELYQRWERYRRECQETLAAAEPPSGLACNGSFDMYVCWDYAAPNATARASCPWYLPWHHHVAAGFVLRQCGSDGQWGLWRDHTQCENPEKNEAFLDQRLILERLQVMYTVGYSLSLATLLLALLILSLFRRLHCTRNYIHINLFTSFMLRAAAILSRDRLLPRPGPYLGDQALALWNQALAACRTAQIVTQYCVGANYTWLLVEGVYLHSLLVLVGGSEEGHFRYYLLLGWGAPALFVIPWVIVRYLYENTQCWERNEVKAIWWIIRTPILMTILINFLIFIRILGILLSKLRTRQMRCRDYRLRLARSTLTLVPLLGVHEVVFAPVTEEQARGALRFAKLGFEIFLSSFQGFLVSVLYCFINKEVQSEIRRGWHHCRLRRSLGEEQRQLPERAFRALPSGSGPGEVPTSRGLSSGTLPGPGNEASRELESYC

B1: AT750 (peptide)
peptide: EGTFISDYSIAMDKIK(C20 diacid)QQDFVEWLLAQKPSSGAPPPS-OH
modifications: N-terminus assumed
SMILES: CC[C@H](C)[C@H](NC(=O)[C@H](CO)NC(=O)[C@H](Cc1ccc(O)cc1)NC(=O)[C@H](CC(=O)O)NC(=O)[C@H](CO)NC(=O)[C@@H](NC(=O)[C@H](Cc1ccccc1)NC(=O)[C@@H](NC(=O)CNC(=O)[C@@H](N)CCC(=O)O)[C@@H](C)O)[C@@H](C)CC)C(=O)N[C@@H](C)C(=O)N[C@@H](CCSC)C(=O)N[C@@H](CC(=O)O)C(=O)N[C@@H](CCCCN)C(=O)N[C@H](C(=O)N[C@@H](CCCCNC(=O)CCCCCCCCCCCCCCCCCCC(=O)O)C(=O)N[C@@H](CCC(N)=O)C(=O)N[C@@H](CCC(N)=O)C(=O)N[C@@H](CC(=O)O)C(=O)N[C@@H](Cc1ccccc1)C(=O)N[C@H](C(=O)N[C@@H](CCC(=O)O)C(=O)N[C@@H](Cc1c[nH]c2ccccc12)C(=O)N[C@@H](CC(C)C)C(=O)N[C@@H](CC(C)C)C(=O)N[C@@H](C)C(=O)N[C@@H](CCC(N)=O)C(=O)N[C@@H](CCCCN)C(=O)N1CCC[C@H]1C(=O)N[C@@H](CO)C(=O)N[C@@H](CO)C(=O)NCC(=O)N[C@@H](C)C(=O)N1CCC[C@H]1C(=O)N1CCC[C@H]1C(=O)N1CCC[C@H]1C(=O)N[C@@H](CO)C(=O)O)C(C)C)[C@@H](C)CC
B2: AT748 (peptide)
peptide: EGTFISDYSIAMDAIK(C16 diacid)QQDFVEWLLAQKPSSGAPPPS-OH
modifications: N-terminus assumed
SMILES: CC[C@H](C)[C@H](NC(=O)[C@H](C)NC(=O)[C@H](CC(=O)O)NC(=O)[C@H](CCSC)NC(=O)[C@H](C)NC(=O)[C@@H](NC(=O)[C@H](CO)NC(=O)[C@H](Cc1ccc(O)cc1)NC(=O)[C@H](CC(=O)O)NC(=O)[C@H](CO)NC(=O)[C@@H](NC(=O)[C@H](Cc1ccccc1)NC(=O)[C@@H](NC(=O)CNC(=O)[C@@H](N)CCC(=O)O)[C@@H](C)O)[C@@H](C)CC)[C@@H](C)CC)C(=O)N[C@@H](CCCCNC(=O)CCCCCCCCCCCCCCC(=O)O)C(=O)N[C@@H](CCC(N)=O)C(=O)N[C@@H](CCC(N)=O)C(=O)N[C@@H](CC(=O)O)C(=O)N[C@@H](Cc1ccccc1)C(=O)N[C@H](C(=O)N[C@@H](CCC(=O)O)C(=O)N[C@@H](Cc1c[nH]c2ccccc12)C(=O)N[C@@H](CC(C)C)C(=O)N[C@@H](CC(C)C)C(=O)N[C@@H](C)C(=O)N[C@@H](CCC(N)=O)C(=O)N[C@@H](CCCCN)C(=O)N1CCC[C@H]1C(=O)N[C@@H](CO)C(=O)N[C@@H](CO)C(=O)NCC(=O)N[C@@H](C)C(=O)N1CCC[C@H]1C(=O)N1CCC[C@H]1C(=O)N1CCC[C@H]1C(=O)N[C@@H](CO)C(=O)O)C(C)C
B3: AT753 (peptide)
peptide: Adipoyl-GTFISEYSI[Aib]LEKIK([AEEA-AEEA-γGlu-C18 diacid])QQEFVEWLLAQKPSSGAPPPS-OH
SMILES: CC[C@H](C)[C@H](NC(=O)[C@H](CCCCN)NC(=O)[C@H](CCC(=O)O)NC(=O)[C@H](CC(C)C)NC(=O)C(C)(C)NC(=O)[C@@H](NC(=O)[C@H](CO)NC(=O)[C@H](Cc1ccc(O)cc1)NC(=O)[C@H](CCC(=O)O)NC(=O)[C@H](CO)NC(=O)[C@@H](NC(=O)[C@H](Cc1ccccc1)NC(=O)[C@@H](NC(=O)CNC(=O)CCCCC(=O)O)[C@@H](C)O)[C@@H](C)CC)[C@@H](C)CC)C(=O)N[C@@H](CCCCNC(=O)COCCOCCNC(=O)COCCOCCNC(=O)CC[C@H](NC(=O)CCCCCCCCCCCCCCCCC(=O)O)C(=O)O)C(=O)N[C@@H](CCC(N)=O)C(=O)N[C@@H](CCC(N)=O)C(=O)N[C@@H](CCC(=O)O)C(=O)N[C@@H](Cc1ccccc1)C(=O)N[C@H](C(=O)N[C@@H](CCC(=O)O)C(=O)N[C@@H](Cc1c[nH]c2ccccc12)C(=O)N[C@@H](CC(C)C)C(=O)N[C@@H](CC(C)C)C(=O)N[C@@H](C)C(=O)N[C@@H](CCC(N)=O)C(=O)N[C@@H](CCCCN)C(=O)N1CCC[C@H]1C(=O)N[C@@H](CO)C(=O)N[C@@H](CO)C(=O)NCC(=O)N[C@@H](C)C(=O)N1CCC[C@H]1C(=O)N1CCC[C@H]1C(=O)N1CCC[C@H]1C(=O)N[C@@H](CO)C(=O)O)C(C)C
B4: AT751 (peptide)
peptide: EGTFISDYSIAMDKIK(Palmitoyl)QQDFVEWLLAQKPSSGAPPPS-OH
modifications: N-terminus assumed
SMILES: CCCCCCCCCCCCCCCC(=O)NCCCC[C@H](NC(=O)[C@@H](NC(=O)[C@H](CCCCN)NC(=O)[C@H](CC(=O)O)NC(=O)[C@H](CCSC)NC(=O)[C@H](C)NC(=O)[C@@H](NC(=O)[C@H](CO)NC(=O)[C@H](Cc1ccc(O)cc1)NC(=O)[C@H](CC(=O)O)NC(=O)[C@H](CO)NC(=O)[C@@H](NC(=O)[C@H](Cc1ccccc1)NC(=O)[C@@H](NC(=O)CNC(=O)[C@@H](N)CCC(=O)O)[C@@H](C)O)[C@@H](C)CC)[C@@H](C)CC)[C@@H](C)CC)C(=O)N[C@@H](CCC(N)=O)C(=O)N[C@@H](CCC(N)=O)C(=O)N[C@@H](CC(=O)O)C(=O)N[C@@H](Cc1ccccc1)C(=O)N[C@H](C(=O)N[C@@H](CCC(=O)O)C(=O)N[C@@H](Cc1c[nH]c2ccccc12)C(=O)N[C@@H](CC(C)C)C(=O)N[C@@H](CC(C)C)C(=O)N[C@@H](C)C(=O)N[C@@H](CCC(N)=O)C(=O)N[C@@H](CCCCN)C(=O)N1CCC[C@H]1C(=O)N[C@@H](CO)C(=O)N[C@@H](CO)C(=O)NCC(=O)N[C@@H](C)C(=O)N1CCC[C@H]1C(=O)N1CCC[C@H]1C(=O)N1CCC[C@H]1C(=O)N[C@@H](CO)C(=O)O)C(C)C
B5: AT754 (peptide)
peptide: EGTFISEYSI[Aib]LEKIK([AEEA-AEEA-γGlu-C18 diacid])QQDFVEWLLAQKPSSGAPPPS-OH
modifications: N-terminus assumed
SMILES: CC[C@H](C)[C@H](NC(=O)[C@H](CCCCN)NC(=O)[C@H](CCC(=O)O)NC(=O)[C@H](CC(C)C)NC(=O)C(C)(C)NC(=O)[C@@H](NC(=O)[C@H](CO)NC(=O)[C@H](Cc1ccc(O)cc1)NC(=O)[C@H](CCC(=O)O)NC(=O)[C@H](CO)NC(=O)[C@@H](NC(=O)[C@H](Cc1ccccc1)NC(=O)[C@@H](NC(=O)CNC(=O)[C@@H](N)CCC(=O)O)[C@@H](C)O)[C@@H](C)CC)[C@@H](C)CC)C(=O)N[C@@H](CCCCNC(=O)COCCOCCNC(=O)COCCOCCNC(=O)CC[C@H](NC(=O)CCCCCCCCCCCCCCCCC(=O)O)C(=O)O)C(=O)N[C@@H](CCC(N)=O)C(=O)N[C@@H](CCC(N)=O)C(=O)N[C@@H](CC(=O)O)C(=O)N[C@@H](Cc1ccccc1)C(=O)N[C@H](C(=O)N[C@@H](CCC(=O)O)C(=O)N[C@@H](Cc1c[nH]c2ccccc12)C(=O)N[C@@H](CC(C)C)C(=O)N[C@@H](CC(C)C)C(=O)N[C@@H](C)C(=O)N[C@@H](CCC(N)=O)C(=O)N[C@@H](CCCCN)C(=O)N1CCC[C@H]1C(=O)N[C@@H](CO)C(=O)N[C@@H](CO)C(=O)NCC(=O)N[C@@H](C)C(=O)N1CCC[C@H]1C(=O)N1CCC[C@H]1C(=O)N1CCC[C@H]1C(=O)N[C@@H](CO)C(=O)O)C(C)C
B6: AT749 (peptide)
peptide: EGTFISDYSIAMDKIK(C16 diacid)QQDFVEWLLAQK-OH
modifications: N-terminus assumed
SMILES: CC[C@H](C)[C@H](NC(=O)[C@H](CO)NC(=O)[C@H](Cc1ccc(O)cc1)NC(=O)[C@H](CC(=O)O)NC(=O)[C@H](CO)NC(=O)[C@@H](NC(=O)[C@H](Cc1ccccc1)NC(=O)[C@@H](NC(=O)CNC(=O)[C@@H](N)CCC(=O)O)[C@@H](C)O)[C@@H](C)CC)C(=O)N[C@@H](C)C(=O)N[C@@H](CCSC)C(=O)N[C@@H](CC(=O)O)C(=O)N[C@@H](CCCCN)C(=O)N[C@H](C(=O)N[C@@H](CCCCNC(=O)CCCCCCCCCCCCCCC(=O)O)C(=O)N[C@@H](CCC(N)=O)C(=O)N[C@@H](CCC(N)=O)C(=O)N[C@@H](CC(=O)O)C(=O)N[C@@H](Cc1ccccc1)C(=O)N[C@H](C(=O)N[C@@H](CCC(=O)O)C(=O)N[C@@H](Cc1c[nH]c2ccccc12)C(=O)N[C@@H](CC(C)C)C(=O)N[C@@H](CC(C)C)C(=O)N[C@@H](C)C(=O)N[C@@H](CCC(N)=O)C(=O)N[C@@H](CCCCN)C(=O)O)C(C)C)[C@@H](C)CC

Molecular target: T1, human GIP receptor
Assay: cell-based or functional assay

| Binder | nM (Kb, Gaddum assay, cAMP) | pKb (Gaddum assay, cAMP) |
| --- | --- | --- |
| Suc-GTFISEYSI[Aib]LEKIK([AEEA-AEEA-γGlu-C18 diacid])QQEFVEWLLAQKPSSGAPPPS-OH [AT752] | 0.52 nM | 9.3 |
| B1 | 4.1 nM | 8.4 |
| B2 | 0.42 nM | 9.4 |
| B3 | 0.23 nM | 9.6 |
| B4 | 0.92 nM | 9 |
| B5 | 2.2 nM | 8.7 |
| B6 | 2.2 nM | 8.7 |

— US20230416330A1, “Optimized GIP Peptide Analogues” (Antag Therapeutics ApS, priority 2019, published 2023)
